The text below walks through data of patent US20250368734A1 (ANTENGENE BIOLOGICS, published 2025).

The target of test [1] is T1, human GPRC5D (human, UniProt Q9NZD1 1-345).
T1 construct: whole, on cells; also called hGPRC5D; G-protein coupled receptor family C group 5 member D
Put plainly: FACS, OPM-2 cells. The text has this: (§1) The subcloning plates were screened by Mirrorball assay and the subclones with good binding ability were expanded to 24-wells for confirmation tests. The specificity and cross-reactivity of these subclones were confirmed with FACS analysis. Briefly, parental HEK293T, HEK293T cells stably over-expressing human GPRC5D protein (i.e., HEK293T-hGPRC5D), HEK293T cells stably over-expressing cynomolgus monkey GPRC5D protein (i.e., HEK293T-cynoGPRC5D), HEK293T cells stably over-expressing mouse GPRC5D protein (i.e., HEK293T-mGPRC5D), and OPM2 cells were incubated with antibodies produced by each subclone, respectively. Fluorescent dye-conjugated secondary antibody was used to detect the binding of the primary antibody with the cells. Median fluorescence intensity (MFI) was measured by FACS analysis,
(§2) As a result, 21 antibodies were discovered with unique sequences showing positive binding with HEK293T-hGPRC5D and OPM2 cells. Among which, some clones could also bind with HEK293T-cynoGPRC5D and/or HEK293T-mGPRC5D. […] ATG596 was a positive human IgG1 control antibody which comprises a VH region having an amino acid sequence as set forth in SEQ ID NO: 199, and a VL region having an amino acid sequence as set forth in SEQ ID NO: 200.
Background: In flow cytometry, cells or beads pass a laser one at a time.

Test [2] deals with T1, human GPRC5D. In words: FACS, HEK293T-hGPRC5D cells.
Text: as §1, §2

Test [3] addresses T2, mouse GPRC5D (mouse, UniProt Q9JIL6 1-344).
T2 construct: whole, on cells; HEK293T-mGPRC5D cells; also called mGPRC5D; murine GPRC5D
T2 sequence (looked up): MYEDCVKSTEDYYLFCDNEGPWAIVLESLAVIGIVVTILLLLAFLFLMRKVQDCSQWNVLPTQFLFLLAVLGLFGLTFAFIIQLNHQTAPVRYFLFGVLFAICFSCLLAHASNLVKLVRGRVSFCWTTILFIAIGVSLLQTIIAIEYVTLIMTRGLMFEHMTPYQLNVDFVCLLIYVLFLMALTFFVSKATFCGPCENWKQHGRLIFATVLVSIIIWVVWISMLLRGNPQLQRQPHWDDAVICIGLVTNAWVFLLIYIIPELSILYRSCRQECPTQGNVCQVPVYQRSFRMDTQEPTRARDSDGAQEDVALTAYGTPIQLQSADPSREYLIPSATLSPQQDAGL
Put plainly: FACS, HEK293T-mGPRC5D cells.
Text: as §1, §2

Test [4] addresses T3, cynomolgus monkey GPRC5D (cynomolgus monkey).
T3 construct: whole, on cells; HEK293T-cynoGPRC5D cells; also called cynoGPRC5D
Put plainly: FACS, HEK293T-cynoGPRC5D cells.
Text: as §1, §2

For test [5], the target named is T1, human GPRC5D. In words: FACS, CHOS-hGPRC5D cells.
For test [6], the target named is T2, mouse GPRC5D. In words: FACS, HEK293T-mGPRC5D cells. The source holds these as a separate data set.
Test [7] addresses T3, cynomolgus monkey GPRC5D. Put plainly: FACS, HEK293T-cynoGPRC5D cells. The source holds these as a separate data set.

For orientation: EC50 means the concentration that produces a half-maximal response.

T1 sequence (Q9NZD1 whole entry): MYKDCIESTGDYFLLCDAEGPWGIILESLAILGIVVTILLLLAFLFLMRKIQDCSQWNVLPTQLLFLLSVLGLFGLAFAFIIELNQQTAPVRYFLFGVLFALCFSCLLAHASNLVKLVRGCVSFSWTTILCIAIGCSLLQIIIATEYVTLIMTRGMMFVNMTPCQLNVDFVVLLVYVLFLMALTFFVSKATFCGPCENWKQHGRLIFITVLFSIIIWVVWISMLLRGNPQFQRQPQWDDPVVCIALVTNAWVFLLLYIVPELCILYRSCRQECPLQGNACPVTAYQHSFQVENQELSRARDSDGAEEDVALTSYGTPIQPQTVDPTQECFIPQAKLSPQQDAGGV

B1: 87A3G8 (antibody, V domains shown)
VH: QVQLKESGPGLVAPSQSLSITCTVSGFSLSSYSVYWVRQPPGKGLEWLGVIWAGGSTNYNSALMSRLSINKDKSKSQVFLKMNSLQTDDSAIYYCAMRWLPRGLDFWGQGTSVTVSS
VL: DIVMTQSHKFMSTSVGDRVSITCKASQDVGTAVAWYQQKPGQSPKLLIYWASTRHTGVPDRFTGSGSGTDFTLTISNVQSEDLADYFCQQYSTYYTFGGGTKLEIK
notes: Mouse monoclonal antibody from hybridoma subclone
In the case of B1, the “% Positive” value with human GPRC5D [1] was 92.7%; with human GPRC5D [2] it was 88.6%; with mouse GPRC5D [3], 46.2%; with cynomolgus monkey GPRC5D [4], 76.7%. Besides, the MFI with human GPRC5D [1] is 451; with human GPRC5D [2] it was 7380; in the test with mouse GPRC5D [3] it was 178; with cynomolgus monkey GPRC5D [4], 3960.

B2: ch87A3G8 (antibody, V domains shown)
VH: QVQLKESGPGLVAPSQSLSITCTVSGFSLSSYSVYWVRQPPGKGLEWLGVIWAGGSTNYNSALMSRLSINKDKSKSQVFLKMNSLQTDDSAIYYCAMRWLPRGLDFWGQGTSVTVSS
VL: DIVMTQSHKFMSTSVGDRVSITCKASQDVGTAVAWYQQKPGQSPKLLIYWASTRHTGVPDRFTGSGSGTDFTLTISNVQSEDLADYFCQQYSTYYTFGGGTKLEIK
Take B2: the half-maximal effective concentration (EC50) with human GPRC5D [5] came out at 2.81 nM; with mouse GPRC5D [6] it was 15 nM; in the test with cynomolgus monkey GPRC5D [7] it was 9.74 nM. Besides, the Top with human GPRC5D [5] stood at 1950; with mouse GPRC5D [6], 76200; in the test with cynomolgus monkey GPRC5D [7] it was 42200.

B3: 82A1C10 (antibody, V domains shown)
VH: QVQLKESGPGLVAPSQSLSITCTVSGFSLTNYAVTWVRQPPGKGLEWLGVIWGDGSTYYHSALVSRLSITKDNSRTQVLLKLNSLQTDDTARYYCAKGGYSPFAYWGQGTLVTVSA
VL: DVVMTQTPLSLPVSLGDQASISCRSSQSLVHSNGNTYLHWYLQKPGQSPKLLIFKVSNRFSGVPDRFSGSGSGTDFTLKISRVEAEDLGVYFCSQNTHVPFTFGSGTKLEIK
notes: as for B1
Regarding B3, the “% Positive” value stood at 94.8% with human GPRC5D [1], 99.4% in the test with human GPRC5D [2], 4.5% with mouse GPRC5D [3] and 94.2% with cynomolgus monkey GPRC5D [4]. Besides, the MFI in the test with human GPRC5D [1] turned out to be 550; in the test with human GPRC5D [2] it was 8090; with mouse GPRC5D [3] it was 119; with cynomolgus monkey GPRC5D [4], 1070.

B4: 96C9E7 (antibody, V domains shown)
VH: EVQLQQSGPELVKPGASVKMSCKASGYTFTYYILHWVKQKPGQGLEWIGYFNPYNDGNKFNERFRGKATLTSDKSSSTAYMELNSLTSEDSAVYFCARGGVRRYFDVWGAGTTVTVSS
VL: DIQMTQSPSSLSASLGERVSLTCRASQDIGSNLNWLQQEPDGTIKRLISATFSLDSGVPKRFSGSRSGSDYSLTISSLESEDFVNYYCLQYASFPYTFGGGTKLEIK
notes: as for B1
For the molecule B4, the “% Positive” value with human GPRC5D [1] came out at 99.9%; with human GPRC5D [2] it was 58.8%; in the test with mouse GPRC5D [3], 49.2%; with cynomolgus monkey GPRC5D [4], 71.7%. The MFI with human GPRC5D [1] is 1930; with human GPRC5D [2] it was 680; with mouse GPRC5D [3] it was 202; with cynomolgus monkey GPRC5D [4], 4020.

B5: 110B4H5 (antibody, V domains shown)
VH: EVQLQQSGPELVKPGASVKMSCKASGYTFTFYIMHWVKQKPGQGPEWIGYINPYNDGTKYNAKFKGKATLSSDRSSSTAYMELSSLTSEDSAVYYCARGGVRRYFDVWGAGTPVTVSS
VL: DIQMTQSPSSLSASLGERVSLTCRSSQDIGSNLNWLQQEPDGTIKRLIYATFSLDSGVPKRFSGSRSGSHYSLTISSLESEDFVVYYCLQYGSFPYTFGGGTKLEIK
notes: as for B1
For the molecule B5, the “% Positive” value with human GPRC5D [1] came to 98.2%; with human GPRC5D [2], 98.7%; in the test with mouse GPRC5D [3], 78.9%; with cynomolgus monkey GPRC5D [4] it was 96.7%. The MFI came to 894 with human GPRC5D [1], 5250 in the test with human GPRC5D [2], 772 in the test with mouse GPRC5D [3] and 2470 in the test with cynomolgus monkey GPRC5D [4].

B6: ch110B4H5 (antibody, V domains shown)
VH: EVQLQQSGPELVKPGASVKMSCKASGYTFTFYIMHWVKQKPGQGPEWIGYINPYNDGTKYNAKFKGKATLSSDRSSSTAYMELSSLTSEDSAVYYCARGGVRRYFDVWGAGTPVTVSS
VL: DIQMTQSPSSLSASLGERVSLTCRSSQDIGSNLNWLQQEPDGTIKRLIYATFSLDSGVPKRFSGSRSGSHYSLTISSLESEDFVVYYCLQYGSFPYTFGGGTKLEIK
B6: the EC50 was determined as 2.74 nM in the test with human GPRC5D [5], 14.2 nM with mouse GPRC5D [6] and 4.87 nM in the test with cynomolgus monkey GPRC5D [7]. Also, the Top with human GPRC5D [5] was determined as 1820; with mouse GPRC5D [6], 42900; with cynomolgus monkey GPRC5D [7], 27600.

B7: 108C4C12 (antibody, V domains shown)
VH: EVQLQQSGPELVKPGASVKMSCKASGYTFTSYVIHWVKQKTGQGLEWIGYFNPYNDGTKYNEEFKGKATLTSDKSSNTAYMELNSLTSDDSAVYFCARGGVRRYFDVWGAGTTVTVSS
VL: DIQMTQSPSSLSASLGERVSLTCRASQDIGSNLNWLQQEPDGTIKRLIYATFGLDSGVPKRFSGSRSGSDYSLTISSLESEDFVDYYCQQYASFPYTFGGGTKLEIK
notes: as for B1
As to B7, the “% Positive” value with human GPRC5D [1] was found to be 98.3%; with human GPRC5D [2], 96.6%; with mouse GPRC5D [3], 65.7%; with cynomolgus monkey GPRC5D [4] it was 59.1%. Besides, the MFI in the test with human GPRC5D [1] is 878; in the test with human GPRC5D [2], 5010; with mouse GPRC5D [3] it was 274; with cynomolgus monkey GPRC5D [4] it was 355.

B8: ch108C4C12 (antibody, V domains shown)
VH: EVQLQQSGPELVKPGASVKMSCKASGYTFTSYVIHWVKQKTGQGLEWIGYFNPYNDGTKYNEEFKGKATLTSDKSSNTAYMELNSLTSDDSAVYFCARGGVRRYFDVWGAGTTVTVSS
VL: DIQMTQSPSSLSASLGERVSLTCRASQDIGSNLNWLQQEPDGTIKRLIYATFGLDSGVPKRFSGSRSGSDYSLTISSLESEDFVDYYCQQYASFPYTFGGGTKLEIK
For the molecule B8, the EC50 in the test with human GPRC5D [5] is 0.463 nM; with mouse GPRC5D [6], 109 nM; in the test with cynomolgus monkey GPRC5D [7], 3.87 nM. Moreover, the Top was 2040 with human GPRC5D [5], 25500 with mouse GPRC5D [6] and 39700 with cynomolgus monkey GPRC5D [7].

B9: ch101B3G3 (antibody, V domains shown)
VH: EVQLQQSGPELVKPGASMKISCKASGYSFTGYTMNWVKQSHGKNLEWIGLINPYNGGTRYNQKFKDKATLTVDKSSSTAYMELLSLTSEDSAVYYCARWLLRYAMDYWGQGTSVTVSS
VL: DIVMTQSQKFMSTSVGDRVSITCKASQNVGNAVAWYQQKPGHSPKLLISSASNRKNGVPDRFTGSGSGTDFTLTVSNMQSEDLADYFCQQYSDSSWTFGGGTKLEIK
As for B9, the half-maximal effective concentration (EC50) worked out at 4.85 nM with human GPRC5D [5], 38.6 nM in the test with mouse GPRC5D [6] and 9.2 nM in the test with cynomolgus monkey GPRC5D [7]. Also, the values for the Top with human GPRC5D [5], in the test with mouse GPRC5D [6] and with cynomolgus monkey GPRC5D [7] were 3940, 57600 and 68900, respectively.

B10: 90G6H3 (antibody, V domains shown)
VH: QAYLQQSGAELVRSGASVKMSCKASGYTFTSYIMHWVKQTPGQGLEWIGYIYPGNGGTNYNQKFKDKATLSADTSSSTAYMQINSLTSEDSAVYFCARWGLRQGFAYWGQGTLVSVSA
VL: DIVMTQSQKFMSTSVGDRVSVTCKASQNVGGNVAWYQQKPGQSPKALIYSTSYRNSGVPDRFTGSGSGTDFTLTISNVQSEDLAEYFCQQYNSYPFTFGSGTKLEIR
notes: as for B1
On to B10, for which the “% Positive” value worked out at 97.3% with human GPRC5D [1], 96.7% with human GPRC5D [2], 87.4% with mouse GPRC5D [3] and 99.4% in the test with cynomolgus monkey GPRC5D [4]. Further, the MFI with human GPRC5D [1] was 712; with human GPRC5D [2] it was 4940; with mouse GPRC5D [3], 2230; in the test with cynomolgus monkey GPRC5D [4] it was 11400.

B11: 89F11E3 (antibody, V domains shown)
VH: QVQLQQSGAELARPGASVKMSCKASGYTFTSSTIHWVKQRPGQGLAWIGYIVPSTGYTNYNQKFKDKATLTADKSSSTAYMQLTSLTSEDSAVYYCARSDGYPFGYSMAYWGQGTSVTVSS
VL: DIQMNQSPSSLSASLGDTITITCHASQNINVWLSWYHQKPGNIPKLLIYKASNLHTGVPSRFSGSGSGTGFTLTISRLQPEDIATYYCQQGQSYPFTFGSGTKLEIK
notes: as for B1
On to B11, for which the “% Positive” value with human GPRC5D [1] was found to be 98.1%; with human GPRC5D [2] it was 96.7%; with mouse GPRC5D [3] it was 74.6%; with cynomolgus monkey GPRC5D [4], 98.8%. The MFI was determined as 999 with human GPRC5D [1], 19200 in the test with human GPRC5D [2], 1100 with mouse GPRC5D [3] and 16500 in the test with cynomolgus monkey GPRC5D [4].
